Measured values reported in patent US9951373B2, “Oplophorus-derived luciferases, novel coelenterazine substrates, and methods of use” (Promega Corporation, priority 2010, dated 2018).

B1: L27V, T39T, K43R, Y68D Sand: L27V in Id-OgLuc-HT7 sandwich (SEQ ID NO: 91) (protein)
chain: MLGLSEQSVSISRCAGTRLPALLDEQQVNVLLYDMNGCYSRLKELVPTLPQNRKVSKVEILQHVIDYIRDLQLELNSESEVGTTGGRGLPVRAPLSTLNGEISALAAEAACVPADDRILCRVSLENLYFQASGGGGGAIAMVFTLEDFVGDWRQTAGYNLDQVLEQGGVSSLFQNLGVSVTPIQRIVLSGENGLKIDIHVIIPYEGLSGDQMGQIEKIFKVVYPVDDHHFKVILHYGTLVIDGVTPNMIDYFGRPYEGIAVFDGKKITVTGTLWNGNKIIDERLINPDGSLLFRVTINGVTGWRLCERILAGYLEPTTEDLYFQSDNDGSEIGTGFPFDPHYVEVLGERMHYVDVGPRDGTPVLFLHGNPTSSYVWRNIIPHVAPTHRCIAPDLIGMGKSDKPDLGYFFDDHVRFMDAFIEALGLEEVVLVIHDWGSALGFHWAKRNPERVKGIAFMEFIRPIPTWDEWPEFARETFQAFRTTDVGRKLIIDQNVFIEGTLPMGVVRPLTEVEMDHYREPFLNPVDREPLWRFPNELPIAGEPANIVALVEEYMDWLHQSPVPKLLFWGTPGVLIPPAEAARLAKSLPNCKAVDIGPGLNLLQEDNPDLIGSEIARWLSTLEISG
B2: L27V, K43R, Y68D: 9B8 opt+K33N with L27V, K43R, Y68D (SEQ ID NO: 340) (protein)
chain: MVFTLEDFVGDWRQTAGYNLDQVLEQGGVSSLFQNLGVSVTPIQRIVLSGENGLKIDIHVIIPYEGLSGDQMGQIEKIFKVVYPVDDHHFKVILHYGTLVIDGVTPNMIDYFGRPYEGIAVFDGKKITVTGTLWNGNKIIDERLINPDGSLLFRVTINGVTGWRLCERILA

Experiments:
HEK293 cells [1] = test: Luminescence in sandwich background, HEK293 cells; format: cell-based, human
Experimental: (§1) The PCR library in the Id-OgLuc-HT7 sandwich background was screened for additional variants with increased luminescence compared to 9B8 opt+K33N in sandwich background. Selected variants were then assayed in HEK293 and NIH3T3 cells. […] 1F7 (F) (SEQ ID NOs: 84 and 85) and 15H1 (F) (SEQ ID NOs: 86 and 87) had at least 1.3 fold-increase in luminescence in E. coli. 1F7 (F) was brighter than 9B8 opt+K33N in the sandwich background in HEK293 and NIH3T3 cells.
(§2) The variants 9B8 opt+K33N+T39T+K43R+Y68D (“V2”; SEQ ID NOs: 92 and 93), 9B8 opt+K33N+L27V+K43R+Y68D (SEQ ID NOs: 339 and 340), 9B8 opt+K33N+L27V+T39T+K43R+S66N (SEQ ID NOs: 341 and 342), and 9B8 opt+K33N+L27V+T39T+K43R+Y68D (“L27V”; SEQ ID NOs: 88 and 89) were subcloned into the Id-OgLuc-HT7 sandwich background as described above and assayed in HEK293 and NIH3T3 cells as described above. The luminescence generated by the sandwiched variants were compared to the luminescence generated by the […] sandwich (SEQ ID NOs: 59 and 60) (Table 38). The L27V sandwich (SEQ ID NOs: 90 and 91) and V2 sandwich (SEQ ID NOs: 94 and 95) had at least 1.3× fold-increase in luminescence in HEK293 and NIH3T3 cells.
(§3) The sandwich and non-sandwich versions of the variants V2, 9B8 opt+K33N+L27V+K43R+Y68D, 9B8 opt+K33N+L27V+T39T+K43R+S66N, and L27V were assayed in HEK293 and NIH3T3 cells as described in Example 37. The luminescence generated by the non-sandwiched variants was compared to the luminescence generated by the sandwiched variants (Table 39).

NIH3T3 cells [2] = test: Luminescence in sandwich background, NIH3T3 cells; format: cell-based
Experimental: as §1, §2, §3

[3] = Luminescence of 9B8 opt+K33N derived variants in E. coli; format: biochemical
Experimental: Luminescence generated from the lysates was measured using the novel PBI-3939 and native coelenterazine as substrates. The relative specificity of the variants for PBI-3939 and native coelenterazine was calculated as described previously.
A new OgLuc library was created using 9B8opt+K33N as a starting template. The random library was created using DIVERSIFY® PCR Random Mutagenesis Kit (ClonTech; Catalog #630703). Condition 5 (as listed in the user manual) was used to generate additional variants, and the average mutation rate was calculated to be 2.6 mutations per gene by compiling sequence data from 83 randomly selected clones. This PCR library was cloned into the pF4Ag-based, non-fusion vector background described previously and the sandwich background, i.e., Id-OgLuc-HT7 (described in Example 45). Variants in the pF4Ag-base non-fusion vector background are designated with (NF). Variants in the sandwich vector background are designated with (F). In order to clone the PCR product into both vectors, an amino acid, i.e., a glycine, was appended to the variant sequence in pF4Ag, generating a new position 170 in the OgLuc variant (“170G”). The 170G is present in the sandwich construct, but in this case is considered part of the linker between OgLuc and HT7. For each library, 4,400 E. coli clones were assayed as described previously with the following exceptions. […] The assay buffer contained 100 mM MES pH 6.0 instead of HEPES, and 35 mM thiourea. The assay volumes were as follows: 10 μL cells, 40 μL, lysis buffer, and 50 μL, assay buffer.
E. coli lysates containing the variants were prepared and analyzed as described previously. Luminescence generated from the lysates was measured using the novel PBI-3939 and native coelenterazine as substrates. The luminescence of the variants was normalized to the luminescence generated by 9B8 opt (Table 12). The relative specificity of the variants for PBI-3939 and native coelenterazine was calculated by dividing the luminescence of the variants using PBI-3939 as a substrate with the luminescence of the variants using native coelenterazine as a substrate (Table 12).

HEK293 cells [4] = test: Luminescence of OgLuc variants expressed in HEK293 cells; format: cell-based, human
Experimental: (§4) The PCR library in the pF4Ag-based non-fusion background was screened for additional variants with increased luminescence compared to 9B8 opt+K33N+170G (SEQ ID NOs: 68 and 69). Selected variants were then assayed in HEK293 and NIH3T3 cells. For each cell type, 15,000 cells were plated and grown overnight at 37° C. The next day, the cells were transfected as described in Example 25 with 10 ng pGL4.13 (Promega Corp.) as a transfection control and 100 ng of the OgLuc test DNA. The media was removed, and the cells were lysed with 100 μL of lysis buffer as described in Example 25 except the lysis buffer contained 100 mM MES pH 6.0 instead of HEPES, and luminescence measured using a GLOMAX® Luminometer.
(§5) Based on the above data, further combination variants were designed and generated (see Table 10) in the context of the pF4Ag-based non-fusion vector background without the 170G. The variants were analyzed in E. coli, HEK293 and NIH3T3 cells as described above and compared to 9B8 opt+K33N. The variants were also examined for luminescence with native coelenterazine.
(§6) The brightness of the variants expressed in HEK293 and NIH3T3 cells was measured as described previously. The luminescence of the variants was normalized to the luminescence generated by 9B8 opt (Table 27).

NIH3T3 cells [5] = test: Luminescence of OgLuc variants expressed in NIH3T3 cells; format: cell-based
Experimental: as §4, §5, §6

[6] = Enzyme kinetics of OgLuc variants in E. coli lysates; format: biochemical; conditions: PBI-3939, E. coli lysates
Experimental: Using methods known in the art, enzyme kinetic assays measuring luminescence were performed with the lysates of E. coli containing IV and the IV variants 15C1, 9B8, 9F6, and 9A3. […] Two fold serial dilutions of PBI-3939 in the assay buffer described previously in Example 26 were assayed with the diluted lysates. […] Variants 9B8 and 9F6 had higher Km values compared to IV while Km values for the other variants were unchanged.
Luminescence was measured on a TECAN® INFINITE® F500 luminometer.
The enzyme kinetics values were determined for the OgLuc variants as described previously, except luminescence was measured using a GLOMAX® luminometer. Three replicates were used for each variant.

[7] = Thermal stability of OgLuc variants at 60° C.; format: physicochemical; conditions: 60° C., assay buffer MES pH 6.0
Experimental: Aliquots were removed at different time-points and placed on dry ice to freeze the samples. […] Luminescence was measured on a GLOMAX® luminometer (Promega Corp.).
The thermal stability of the variants at 60° C. was examined as described above, except the assay buffer contained 100 mM MES pH 6.0 instead of HEPES.

[8] = relative specificity for PBI-3939 compared to native coelenterazine

Molecule | Fold over 9B8 opt + K33N sandwich, HEK293 (HEK293 cells [1]; sandwich background) | Fold over 9B8 opt + K33N sandwich, NIH3T3 (NIH3T3 cells [2]; sandwich background) | fold-increase in relative specificity over 9B8 opt+K33N ([3]; in the three cell types examined) [× fold] | Fold over coelenterazine ([3]; luminescence with PBI-3939 divided by luminescence with native coelenterazine, bacterial lysates) | Fold over 9B8 ([3]; luminescence with PBI-3939 normalized to 9B8 opt, bacterial lysates) | Fold over Native Coelenterazine, E. coli [3, 8] | luminescence normalized to 9B8 opt, HEK293 (HEK293 cells [4]; PBI-3939) | Fold over 9B8 opt + K33N, HEK293 (HEK293 cells [4]; luminescence, PBI-3939) | Fold over Native Coelenterazine, HEK293 (HEK293 cells [4]; [8]) | luminescence normalized to 9B8 opt, NIH3T3 (NIH3T3 cells [5]; PBI-3939) | Fold over 9B8 opt + K33N, NIH3T3 (NIH3T3 cells [5]; luminescence, PBI-3939) | Fold over Native Coelenterazine, NIH3T3 (NIH3T3 cells [5]; [8]) | Km [6] [µM] | Vmax [6] | 1/2 life hours [7] [h] | Fold-decrease in luminescence in the presence of sandwich background, HEK 293 (HEK293 cells [1]; non-sandwich versus sandwich) | Fold-decrease in luminescence in the presence of sandwich background, NIH 3T3 cells (NIH3T3 cells [2]; non-sandwich versus sandwich)
B1 | 1.7 | 1.4 | – | – | – | – | – | – | – | – | – | – | – | – | – | – | –
B2 | – | – | 5 | 110 | 1.3 | 98.3 | 1.6 | 0.9 | 101 | 1.5 | 0.8 | 98 | 13.7 | 130,000,000 RLU/0.5 sec | 23.2 | 8 | 22
